{"source": "patent US20100204445A1", "binders": {"B1": {"name": "recombinant JNK3 of which a wild-type dockerin was fused at the N-terminal (protein, not shown: large carriers; small tags and cut ends)", "chain": "MGLKGDVNNDGAIDALDIAALKKAILTQSTSNINLTNADMNNDGNIDAIDFAQLKVKLLN", "modifications": "not fully specified (C-terminus)"}, "B2": {"name": "recombinant JNK3 of which an I49T-substituted dockerin polypeptide is fused at the N-terminal (protein, not shown: large carriers; small tags and cut ends)", "chain": "MGLKGDVNNDGAIDALDIAALKKAILTQSTSNINLTNADMNNDGNIDATDFAQLKVKLLN"}, "B3": {"name": "recombinant JNK3 of which an I49G-substituted dockerin polypeptide is fused at the N-terminal (protein, not shown: large carriers; small tags and cut ends)", "chain": "MGLKGDVNNDGAIDALDIAALKKAILTQSTSNINLTNADMNNDGNIDAGDFAQLKVKLLN"}, "B4": {"name": "recombinant JNK3 of which an I49N-substituted dockerin polypeptide was fused at the N-terminal (protein, not shown: large carriers; small tags and cut ends)", "chain": "MGLKGDVNNDGAIDALDIAALKKAILTQSTSNINLTNADMNNDGNIDANDFAQLKVKLLN"}, "B5": {"name": "recombinant JNK3 of which an I49S-substituted dockerin polypeptide is fused at the N-terminal (protein, not shown: large carriers; small tags and cut ends)", "chain": "MGLKGDVNNDGAIDALDIAALKKAILTQSTSNINLTNADMNNDGNIDASDFAQLKVKLLN"}, "B6": {"name": "recombinant JNK3 of which an L16T/I49T-substituted dockerin polypeptide is fused at the N-terminal (protein, not shown: large carriers; small tags and cut ends)", "chain": "MGLKGDVNNDGAIDATDIAALKKAILTQSTSNINLTNADMNNDGNIDATDFAQLKVKLLN"}, "B7": {"name": "recombinant JNK3 of which an I49V-substituted dockerin polypeptide is fused at the N-terminal (protein, not shown: large carriers; small tags and cut ends)", "chain": "MGLKGDVNNDGAIDALDIAALKKAILTQSTSNINLTNADMNNDGNIDAVDFAQLKVKLLN"}, "B8": {"name": "recombinant fused protein in which a dockerin polypeptide with the 48th amino acid alanine (A) substituted with serine (S) was fused at the N-terminal of … (protein, not shown: large carriers; small tags and cut ends)", "chain": "MGLKGDVNNDGAIDALDIAALKKAILTQSTSNINLTNADMNNDGNIDSIDFAQLKVKLLN", "modifications": "not fully specified (C-terminus)"}, "B9": {"name": "recombinant JNK3 of which a wild-type dockerin was fused at the C-terminal (protein, not shown: large carriers; small tags and cut ends)", "chain": "MGLKGDVNNDGAIDALDIAALKKAILTQSTSNINLTNADMNNDGNIDAIDFAQLKVKLLN"}, "B10": {"name": "recombinant JNK3 with an I49T-substituted dockerin polypeptide fused at the C-terminal (protein, not shown: large carriers; small tags and cut ends)", "chain": "MGLKGDVNNDGAIDALDIAALKKAILTQSTSNINLTNADMNNDGNIDATDFAQLKVKLLN"}, "B11": {"name": "recombinant JNK3 of which an L16T/I49T-substituted dockerin polypeptide was fused at the C-terminal (protein, not shown: large carriers; small tags and cut ends)", "chain": "MGLKGDVNNDGAIDATDIAALKKAILTQSTSNINLTNADMNNDGNIDATDFAQLKVKLLN"}}, "key": {"[1]": {"biological_target": "recombinant cohesin (CipA of Clostridium josui, BAA32429) (Clostridium josui)", "assay": "SPR (Biacore T-100), same format, 5 mM EGTA in running buffer"}, "[2]": {"biological_target": "recombinant cohesin (CipA of Clostridium josui, BAA32429) (Clostridium josui)", "assay": "batch elution of N-terminal fusion from cohesin carrier with 5 mM EGTA at 4 C, SDS-PAGE densitometry, 360 min set to 100"}, "[3]": {"biological_target": "recombinant cohesin (CipA of Clostridium josui, BAA32429) (Clostridium josui)", "assay": "SPR (Biacore T-100), fusion captured via anti-JNK3 antibody on Protein A chip, cohesin as analyte, +Ca2+ (1 mM CaCl2), no EGTA"}, "[4]": {"biological_target": "recombinant cohesin (CipA of Clostridium josui, BAA32429) (Clostridium josui)", "assay": "SPR as in Example 7, under the action of a chelating agent"}, "[5]": {"biological_target": "recombinant cohesin (CipA of Clostridium josui, BAA32429) (Clostridium josui)", "assay": "batch elution of C-terminal fusion from cohesin carrier with 5 mM EGTA at 4 C, SDS-PAGE densitometry, 360 min set to 100"}}, "note": "Ends that are not written are not given here.", "data": [{"binder": "B1", "values": [{"measurement": "Kd", "setting": "[1]", "value": 3.9, "unit": "nM"}, {"measurement": "koff", "setting": "[1]", "value": 0.0079, "unit": "s⁻¹"}, {"measurement": "kon", "setting": "[1]", "value": "2e+06", "unit": "M⁻¹ s⁻¹"}, {"measurement": "rate of eluted recombinant protein (%) at 5 min", "setting": "[2]", "value": 11.5, "unit": "%"}, {"measurement": "rate of eluted recombinant protein (%) at 30 min", "setting": "[2]", "value": 28.8, "unit": "%"}, {"measurement": "rate of eluted recombinant protein (%) at 60 min", "setting": "[2]", "value": 39.6, "unit": "%"}, {"measurement": "rate of eluted recombinant protein (%) at 360 min", "setting": "[2]", "value": 100, "unit": "%"}, {"measurement": "Kd", "setting": "[3]", "value": 6.5, "unit": "nM"}, {"measurement": "koff", "setting": "[3]", "value": 0.0053, "unit": "s⁻¹"}, {"measurement": "kon", "setting": "[3]", "value": 810000, "unit": "M⁻¹ s⁻¹"}]}, {"binder": "B2", "values": [{"measurement": "Kd", "setting": "[1]", "value": 19, "unit": "nM"}, {"measurement": "koff", "setting": "[1]", "value": 0.023, "unit": "s⁻¹"}, {"measurement": "kon", "setting": "[1]", "value": "1.2e+06", "unit": "M⁻¹ s⁻¹"}, {"measurement": "rate of eluted recombinant protein (%) at 5 min", "setting": "[2]", "value": 66.5, "unit": "%"}, {"measurement": "rate of eluted recombinant protein (%) at 30 min", "setting": "[2]", "value": 100, "unit": "%"}, {"measurement": "rate of eluted recombinant protein (%) at 60 min", "setting": "[2]", "value": 100, "unit": "%"}, {"measurement": "rate of eluted recombinant protein (%) at 360 min", "setting": "[2]", "value": 100, "unit": "%"}, {"measurement": "Kd", "setting": "[3]", "value": 3.8, "unit": "nM"}, {"measurement": "koff", "setting": "[3]", "value": 0.006, "unit": "s⁻¹"}, {"measurement": "kon", "setting": "[3]", "value": "1.6e+06", "unit": "M⁻¹ s⁻¹"}]}, {"binder": "B3", "values": [{"measurement": "Kd", "setting": "[1]", "value": 170, "unit": "nM"}, {"measurement": "koff", "setting": "[1]", "value": 0.05, "unit": "s⁻¹"}, {"measurement": "kon", "setting": "[1]", "value": 300000, "unit": "M⁻¹ s⁻¹"}, {"measurement": "rate of eluted recombinant protein (%) at 5 min", "setting": "[2]", "value": 100, "unit": "%"}, {"measurement": "rate of eluted recombinant protein (%) at 30 min", "setting": "[2]", "value": 100, "unit": "%"}, {"measurement": "rate of eluted recombinant protein (%) at 60 min", "setting": "[2]", "value": 100, "unit": "%"}, {"measurement": "rate of eluted recombinant protein (%) at 360 min", "setting": "[2]", "value": 100, "unit": "%"}, {"measurement": "Kd", "setting": "[3]", "value": 2.2, "unit": "nM"}, {"measurement": "koff", "setting": "[3]", "value": 0.0066, "unit": "s⁻¹"}, {"measurement": "kon", "setting": "[3]", "value": "3e+06", "unit": "M⁻¹ s⁻¹"}]}, {"binder": "B4", "values": [{"measurement": "Kd", "setting": "[1]", "value": 56, "unit": "nM"}, {"measurement": "koff", "setting": "[1]", "value": 0.089, "unit": "s⁻¹"}, {"measurement": "kon", "setting": "[1]", "value": "1.6e+06", "unit": "M⁻¹ s⁻¹"}, {"measurement": "rate of eluted recombinant protein (%) at 5 min", "setting": "[2]", "value": 65.9, "unit": "%"}, {"measurement": "rate of eluted recombinant protein (%) at 30 min", "setting": "[2]", "value": 94.1, "unit": "%"}, {"measurement": "rate of eluted recombinant protein (%) at 60 min", "setting": "[2]", "value": 100, "unit": "%"}, {"measurement": "rate of eluted recombinant protein (%) at 360 min", "setting": "[2]", "value": 100, "unit": "%"}, {"measurement": "Kd", "setting": "[3]", "value": 3.7, "unit": "nM"}, {"measurement": "koff", "setting": "[3]", "value": 0.005, "unit": "s⁻¹"}, {"measurement": "kon", "setting": "[3]", "value": "1.3e+06", "unit": "M⁻¹ s⁻¹"}]}, {"binder": "B5", "values": [{"measurement": "Kd", "setting": "[1]", "value": 67, "unit": "nM"}, {"measurement": "koff", "setting": "[1]", "value": 0.048, "unit": "s⁻¹"}, {"measurement": "kon", "setting": "[1]", "value": 710000, "unit": "M⁻¹ s⁻¹"}, {"measurement": "rate of eluted recombinant protein (%) at 5 min", "setting": "[2]", "value": 74.7, "unit": "%"}, {"measurement": "rate of eluted recombinant protein (%) at 30 min", "setting": "[2]", "value": 100, "unit": "%"}, {"measurement": "rate of eluted recombinant protein (%) at 60 min", "setting": "[2]", "value": 100, "unit": "%"}, {"measurement": "rate of eluted recombinant protein (%) at 360 min", "setting": "[2]", "value": 100, "unit": "%"}, {"measurement": "Kd", "setting": "[3]", "value": 4.5, "unit": "nM"}, {"measurement": "koff", "setting": "[3]", "value": 0.0045, "unit": "s⁻¹"}, {"measurement": "kon", "setting": "[3]", "value": "1e+06", "unit": "M⁻¹ s⁻¹"}]}, {"binder": "B6", "values": [{"measurement": "Kd", "setting": "[1]", "value": 12, "unit": "nM"}, {"measurement": "koff", "setting": "[1]", "value": 0.029, "unit": "s⁻¹"}, {"measurement": "kon", "setting": "[1]", "value": 250000, "unit": "M⁻¹ s⁻¹"}, {"measurement": "rate of eluted recombinant protein (%) at 5 min", "setting": "[2]", "value": 55.2, "unit": "%"}, {"measurement": "rate of eluted recombinant protein (%) at 30 min", "setting": "[2]", "value": 100, "unit": "%"}, {"measurement": "rate of eluted recombinant protein (%) at 60 min", "setting": "[2]", "value": 100, "unit": "%"}, {"measurement": "rate of eluted recombinant protein (%) at 360 min", "setting": "[2]", "value": 100, "unit": "%"}, {"measurement": "Kd", "setting": "[3]", "value": 3.2, "unit": "nM"}, {"measurement": "koff", "setting": "[3]", "value": 0.015, "unit": "s⁻¹"}, {"measurement": "kon", "setting": "[3]", "value": "4.9e+06", "unit": "M⁻¹ s⁻¹"}]}, {"binder": "B7", "values": [{"measurement": "Kd", "setting": "[1]", "value": 8.1, "unit": "nM"}, {"measurement": "koff", "setting": "[1]", "value": 0.011, "unit": "s⁻¹"}, {"measurement": "kon", "setting": "[1]", "value": "1.4e+06", "unit": "M⁻¹ s⁻¹"}, {"measurement": "rate of eluted recombinant protein (%) at 5 min", "setting": "[2]", "value": 25.3, "unit": "%"}, {"measurement": "rate of eluted recombinant protein (%) at 30 min", "setting": "[2]", "value": 53.3, "unit": "%"}, {"measurement": "rate of eluted recombinant protein (%) at 60 min", "setting": "[2]", "value": 68.2, "unit": "%"}, {"measurement": "rate of eluted recombinant protein (%) at 360 min", "setting": "[2]", "value": 100, "unit": "%"}, {"measurement": "Kd", "setting": "[3]", "value": 7.6, "unit": "nM"}, {"measurement": "koff", "setting": "[3]", "value": 0.0033, "unit": "s⁻¹"}, {"measurement": "kon", "setting": "[3]", "value": 430000, "unit": "M⁻¹ s⁻¹"}]}, {"binder": "B8", "values": [{"measurement": "Kd", "setting": "[4]", "value": 5.2, "unit": "nM"}]}, {"binder": "B9", "values": [{"measurement": "rate of eluted recombinant protein (%) at 5 min", "setting": "[5]", "value": 1.5, "unit": "%"}, {"measurement": "rate of eluted recombinant protein (%) at 30 min", "setting": "[5]", "value": 10.5, "unit": "%"}, {"measurement": "rate of eluted recombinant protein (%) at 60 min", "setting": "[5]", "value": 20.9, "unit": "%"}, {"measurement": "rate of eluted recombinant protein (%) at 360 min", "setting": "[5]", "value": 100, "unit": "%"}]}, {"binder": "B10", "values": [{"measurement": "rate of eluted recombinant protein (%) at 5 min", "setting": "[5]", "value": 83.1, "unit": "%"}, {"measurement": "rate of eluted recombinant protein (%) at 30 min", "setting": "[5]", "value": 100, "unit": "%"}, {"measurement": "rate of eluted recombinant protein (%) at 60 min", "setting": "[5]", "value": 100, "unit": "%"}, {"measurement": "rate of eluted recombinant protein (%) at 360 min", "setting": "[5]", "value": 100, "unit": "%"}]}, {"binder": "B11", "values": [{"measurement": "rate of eluted recombinant protein (%) at 5 min", "setting": "[5]", "value": 55.7, "unit": "%"}, {"measurement": "rate of eluted recombinant protein (%) at 30 min", "setting": "[5]", "value": 100, "unit": "%"}, {"measurement": "rate of eluted recombinant protein (%) at 60 min", "setting": "[5]", "value": 100, "unit": "%"}, {"measurement": "rate of eluted recombinant protein (%) at 360 min", "setting": "[5]", "value": 100, "unit": "%"}]}]}
